Experimental data as given in the supplement of paper PMC10567573.
± gives the standard deviation.

Experiment: protein stability index of a GFP-peptide fusion (GPS, HEK-293T) (PSI 1-6); higher = more stable
[1] = treatment: DMSO, c terminus: a fixed tail appended
[2] = treatment: MLN4924 1 uM, 8 h, c terminus: a fixed tail appended
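Note: 24-mer peptide tiles fused after GFP, lentivirally expressed, FACS-sorted into six equal bins by GFP/DsRed ratio, decoded by Illumina sequencing, PSI is the read-weighted mean bin number.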

| Sequence | protein stability index [1] | protein stability index [2] | protein stability index (treatment: DMSO, c terminus: native) | protein stability index (treatment: MLN4924 1 uM, 8 h, c terminus: native) |
| --- | --- | --- | --- | --- |
| QSEPSEQDGVLDLSTKKSPCAGST [LCOR] | 5.39 ± 0.22 | 5.46 ± 0.29 |  |  |
| TSQEIFRQRFRHLRYQETPGPREA [ZNF232] | 3.63 ± 0.36 | 3.6 ± 0.28 |  |  |
| LKDEEAKVLQLTVRCEALTGELET [CCDC89] | 3.86 ± 0.15 | 3.71 ± 0.25 |  |  |
| HELMLRFKDEYKSENIKLREENEK [CCDC89] | 5.21 ± 0.36 | 5.29 ± 0.13 |  |  |
| GTFQVNFYHDHTKIIICSQNEEYL [PLK2] | 2.5 ± 1.1 | 2.21 ± 0.42 |  |  |
| VTLEASRENSKPRAILKPRKVCVG [PPP2R2B] | 3.54 ± 0.23 | 3.8 ± 0.32 |  |  |
| LPLSPGVLSSTPDHSFSLELGSEV [ATF4] | 3.72 ± 0.21 | 3.95 ± 0.5 |  |  |
| EKLQKEQKELQDVGQSLRIKEQEV [SASS6] | 4.79 ± 0.94 | 5.29 ± 0.04 |  |  |
| HRWPPVWYLKEEDHYQRVKREREK [RHOBTB1] | 3.75 ± 0.34 | 4.03 ± 0.28 |  |  |
| ISDRYSPELRQLVLSLLSLEPAQR [NEK8] | 2.66 ± 0.38 | 2.3 ± 0.39 |  |  |
| NINDRIKELGTLIPKSSDPEMRWN [TFE3] | 3.58 ± 0.33 | 3.77 ± 0.17 |  |  |
| LRDGGGLTPLELLLRQLGRDAGAT [ANKRD9] | 2.79 ± 0.34 | 2.58 ± 0.27 |  |  |
| STLVEVTLGEVPAAESPDPPQSPQ [MAGEA3] | 5.39 ± 0.14 | 5.27 ± 0.17 |  |  |
| KLILTSSASVIFEGVDIKNGTEDL [NSDHL] | 3.13 ± 0.33 | 3.27 ± 0.22 |  |  |
| VESLKRFCASTRLPPTPLLLFPEE [AUP1] | 2.81 ± 0.35 | 3.01 ± 0.35 |  |  |
| DHNEAMKPEEPPQNLLREKIMKLP [PCMTD1] | 4.63 ± 0.32 | 4.66 ± 0.12 |  |  |
| LLRDRTGQQSDTAQLELYQLQVES [SCARA5] | 4.42 ± 0.37 | 4.56 ± 0.13 |  |  |
| HVTDPLIGCKKPVSASGKEMDWAQ [SMG5] | 3.78 ± 0.18 | 4.04 ± 0.24 |  |  |
| ALNFMKGCLKMNPDDRLTCSQLLE [CDKL4] | 2.32 ± 0.18 | 2.55 ± 0.38 |  |  |
| GGGPSATEWACILRRKTPRHKQPT [C6orf223] | 3.57 ± 0.12 | 3.72 ± 0.16 |  |  |
| PVGFGRRTDPNGDYIRRYLPVLRG [CRY1] | 3.14 ± 0.2 | 3.17 ± 0.39 |  |  |
| KYRRHFLRFCHNNKKAKRYLLHGL [EIF5] | 2.21 ± 0.2 | 2.27 ± 0.19 |  |  |
| RFCLPHLVALAEQHAVQELTKAAT [RHOBTB1] | 2.12 ± 0.18 | 2.08 ± 0.15 |  |  |

| Sequence | protein stability index [1] | protein stability index [2] | protein stability index (treatment: DMSO, c terminus: native) | protein stability index (treatment: MLN4924 1 uM, 8 h, c terminus: native) |
| --- | --- | --- | --- | --- |
| GAFYRRAQRLRPQDEPRQGCQPED [KCNG1] | 5.21 ± 0.18 | 5.11 ± 0.11 |  |  |
| NVQILLPVGEPVTNVRLQPAATWN [FCHO1] | 2.32 ± 0.22 | 2.44 ± 0.19 |  |  |
| QVHAWQLYYSKKLLDSWFTSTQEK [JAGN1] | 2.23 ± 0.29 | 2.29 ± 0.29 |  |  |
| INSRRWCSNLTPNVPNVCRMYCSD [SPACA3] | 2.13 ± 0.26 | 2.42 ± 0.33 |  |  |
| FTAALEHCRENAHDKIRPISSIGQ [SPACA9] | 3.3 ± 0.088 | 3.41 ± 0.25 |  |  |
| VEVDENAYRCGSGMQMAEDSKSLK [NET1] | 4.98 ± 0.26 | 4.99 ± 0.31 |  |  |
| KNYFQHREFSFTLKDDIYIRYQSF [PRIM1] | 2.22 ± 0.9 | 2.26 ± 0.87 |  |  |
| QQRPHPRSHSREPRAERKCPRIAP [ELOA2] | 4.49 ± 0.46 | 4.53 ± 0.071 |  |  |
| QESDQTEEHESGIEQFSESHAIHV [IQUB] | 5.34 ± 0.18 | 5.45 ± 0.22 |  |  |
| KSALGAMGQWQLEVGDPAPLGAGN [DPCD] | 3.98 ± 0.21 | 3.96 ± 0.27 |  |  |
| KQASNLETAIADAEQRGDNALKDA [KRT71] | 5.66 ± 0.18 | 5.62 ± 0.22 |  |  |
| MERTGGIGDSRPPSFHPHAGGGSQ [DVL3] | 4.5 ± 0.18 | 4.69 ± 0.16 |  |  |
| LQDVIMQVADVPEKPRVPAFACQV [ZNF511] | 2.37 ± 0.28 | 2.69 ± 0.21 |  |  |
| LWVQGDIFRSKLKNRPSSEGSINK [CDC14A] | 2.62 ± 0.19 | 2.92 ± 0.62 |  |  |
| HALGSPEKVKACQGQYETIERLRS [TBC1D10A] | 4.03 ± 0.21 | 3.88 ± 0.3 |  |  |
| CHDKYTKIFNDFKDRMKSDHKRET [ZMYND11] | 4.08 ± 0.28 | 3.9 ± 0.28 |  |  |
| QHRKINPKNREYDRFYVINYLVRL [ZNF277] | 3.16 ± 1.1 | 2.29 ± 0.64 |  |  |
| MQNSNECKRNFVAVYDGSSSVEDL [NETO1] | 4.59 ± 0.066 | 4.68 ± 0.22 |  |  |
| IQSKDGKSPLHMTAVHGRFTRSQT [ANKRD44] | 3.84 ± 0.32 | 3.9 ± 0.36 |  |  |
| KENREEARFQDKQYSSHHTAEKRK [CHGB] | 5.21 ± 0.41 | 4.89 ± 0.34 |  |  |
| QERPRPEPGRLGSSSPASVTTEQL [PXN] | 5.29 ± 0.3 | 5.12 ± 0.39 |  |  |
| DSHLGGNARGMGIRSPRPASVATW [CTBP1-DT] | 3.56 ± 0.24 | 3.63 ± 0.2 |  |  |
| ELLREGRASATTTITTAAATSVTV [ZBTB22] | 3.42 ± 0.21 | 3.48 ± 0.28 |  |  |

| Sequence | protein stability index [1] | protein stability index [2] | protein stability index (treatment: DMSO, c terminus: native) | protein stability index (treatment: MLN4924 1 uM, 8 h, c terminus: native) |
| --- | --- | --- | --- | --- |
| TPGDCPPGRRDEDAGEGIQCSQRM [TMEM175] | 5.15 ± 0.37 | 5.25 ± 0.18 |  |  |
| FEMKKGQCKDALEIYKRFLTRMTR [SNAP91] | 2.46 ± 0.7 | 2.56 ± 0.43 |  |  |
| FIDTYSDVGRYIDHYAAIKKAWDD [FBXO3] | 2.6 ± 0.61 | 2.37 ± 0.77 |  |  |
| SSPPQGASPVPESSLTADLLSVDA [SNAP91] | 5.28 ± 0.18 | 5.34 ± 0.16 |  |  |
| LSTIEELIKDAIVSTQPAMMVNLR [C2CD2L] | 2.2 ± 0.29 | 2.35 ± 0.17 |  |  |
| QEYQLPYQRVLPLPIFTPAKMGAT [TCAP] | 3.01 ± 0.35 | 3.09 ± 0.18 |  |  |
| PPRGAVERHSDLPPLNPTSWWADL [SPNS1] | 3.28 ± 0.29 | 3.34 ± 0.29 |  |  |
| ACSEGDVNAVRKLLIEGRSVNEHT [ANKRD17] | 4.22 ± 0.45 | 4.64 ± 0.11 |  |  |
| EERVETTVTSLKTKVGGTNPNGGS [TPD52L1] | 5.11 ± 0.28 | 5.19 ± 0.21 |  |  |
| VVGWFVLFYKPGIVLLLALAKYLK [GULP1] | 2.25 ± 0.41 | 2.37 ± 0.56 |  |  |
| NCIHRDIKPENILITKQGIIKICD [CDKL4] | 2.51 ± 0.39 | 3.28 ± 0.24 |  |  |
| CGPIAGSRQALSFEVPPCNYDPEK | 4.24 ± 0.23 | 4.13 ± 0.46 |  |  |
| SLNALEDQDLDALMADLVADISEA [APBB1IP] | 4.58 ± 0.15 | 4.36 ± 0.23 |  |  |
| PETVRMVLSNMEKLFCIPVHGIRS [IMPA1] | 2.65 ± 0.27 | 2.94 ± 0.3 |  |  |
| NLLESKADGIEVSYNACGVLSHIM [ZER1] | 2.25 ± 0.08 | 2.31 ± 0.28 |  |  |
| DSSWYEPSAELVQTRMAVSLTAAE [ZNF232] | 4.26 ± 0.068 | 4.37 ± 0.29 |  |  |
| YDAYRTDLEELSLGPRDAGTRGRL [ARFIP2] | 4.1 ± 0.29 | 4.35 ± 0.15 |  |  |
| FVCQCYSGYALAEDGKRCVAVDYC [MATN2] | 2.29 ± 0.93 | 2.77 ± 0.46 |  |  |
| RGLVGVGEASYSTIAPTLIADLFV [SPNS1] | 2.29 ± 0.62 | 2.13 ± 0.26 |  |  |
| ELENLAAMDLELQKIAEKFSQRG [CHGB] |  |  | 2.62 ± 0.28 | 3.33 ± 0.64 |
| SREMLQQSKILKVIRKNIVKKCLE [HSP90AB1] | 2.56 ± 0.31 | 2.42 ± 0.57 |  |  |
| DFDGKLKDIAGEFKEQLQALIPYV [ATL3] | 2.38 ± 0.47 | 2.94 ± 0.31 |  |  |
| LLETANQTLQAMDSEDFPQAAKQI [FSD1] | 4.92 ± 0.26 | 4.79 ± 0.17 |  |  |

| Sequence | protein stability index [1] | protein stability index [2] | protein stability index (treatment: DMSO, c terminus: native) | protein stability index (treatment: MLN4924 1 uM, 8 h, c terminus: native) |
| --- | --- | --- | --- | --- |
| PFKAYLDVDITLSSEAFHNYMNAA [RTN3] | 2.92 ± 0.44 | 2.71 ± 0.72 |  |  |
| FLESTDSFNNELKRLCGLKVEVDM [SMARCE1] | 4.08 ± 0.23 | 4.22 ± 0.21 |  |  |
| NFVYNSPRGYFHTFAGDTCQVALN [WASL] | 2.24 ± 0.44 | 2.27 ± 0.64 |  |  |
| QEIIKTTEQLIEAVNNGDFEAYAK [CAMK2B] | 4.27 ± 0.17 | 4.26 ± 0.15 |  |  |
| GNMANLSLHDHDGSSGASDQDTLA [DVL3] | 5.42 ± 0.12 | 5.3 ± 0.41 |  |  |
| VRYLNAYTGIVLLRCRKEFYQLVW [POP5] | 1.94 ± 0.34 | 2.46 ± 0.74 |  |  |
| HTKRLYRAVVEAVHRLDLILCNKT [SMG5] | 2.77 ± 0.36 | 2.82 ± 0.65 |  |  |
| RADLVFIIDSSRSVNTHDYAKVKE [MATN2] | 2.51 ± 0.32 | 2.72 ± 0.34 |  |  |
| TSQFLSLQCLQALYVDSLFFLRGR [PRAME] | 2.49 ± 0.67 | 2.96 ± 0.82 |  |  |
| EMLREVDLNGDGTVDFDEFVMMLS [CABP4] | 4.06 ± 0.25 | 4.17 ± 0.33 |  |  |
| LRGLPGERGTPGLPGPKGDDGKLG [SCARA5] | 4.96 ± 0.33 | 4.96 ± 0.19 |  |  |
| GHCLLDKPEAPLHLPVTFPGKDYD [ADAMTS4] | 4.14 ± 0.26 | 4.4 ± 0.3 |  |  |
| LMKESLQTGDLLSTFHTISPSFQL [PLAGL1] | 2.24 ± 0.13 | 2.17 ± 0.16 |  |  |
| PEGSVSGSQPNSGLALESSSGLQD [NFE2L1] | 5.46 ± 0.2 | 5.51 ± 0.13 |  |  |
| CSEGFLINEDLKTCSRVDYCLLSD [MATN2] | 2.99 ± 0.44 | 3.28 ± 0.14 |  |  |
| SRGTSQTPNASSPGNPTALANGTV [LPCAT4] | 4.73 ± 0.051 | 4.77 ± 0.068 |  |  |
| LSASQKALKEKEKASWSSLSMDEK [COX4I1] | 4.61 ± 0.28 | 4.84 ± 0.22 |  |  |
| DVFSENLLADVKGARAALNEIESR [STX11] | 4.22 ± 0.22 | 4.37 ± 0.12 |  |  |
| ANHVFFLLYLLHILLLDGAAWLTL [FADS1] | 3.23 ± 0.61 | 3.39 ± 0.6 |  |  |
| IWDINNQICTVKDIKAEPQPLSPA [ATF6] | 3.96 ± 0.21 | 4.1 ± 0.24 |  |  |
